B1: Trx1 C30/33S double mutant, His-tagged (natural protein, S. cerevisiae, UniProt P22217 1-103, looked up)
chain: MVTQFKTASEFDSAIAQDKLVVVDFYATWSGPSKMIAPMIEKFSEQYPQADFYKLDVDELGDVAQKNEVSAMPTLLLFKNGKEVAKVVGANPAAIKQAIAANA
notes: Thioredoxin 1 (Trx1), S. cerevisiae, both active-site cysteines changed to serine; also called Trx1His C30/33S; TrxC30/33SHis; source: purified as 6His-tagged protein
B2: Thioredoxin 1 (Trx1), His-tagged, wild type (natural protein, S. cerevisiae, UniProt P22217 1-103, looked up)
chain: MVTQFKTASEFDSAIAQDKLVVVDFYATWCGPCKMIAPMIEKFSEQYPQADFYKLDVDELGDVAQKNEVSAMPTLLLFKNGKEVAKVVGANPAAIKQAIAANA
notes: Thioredoxin 1 (Trx1), S. cerevisiae, cytosolic isoform; cloned in PET24 vector; also called Trx1His wt; TrxHis; source: E. coli, purified (Ni-NTA); for the pull-down imported into isolated wt yeast mitochondria
B3: Thioredoxin 2 (Trx2), His-tagged (natural protein, S. cerevisiae, UniProt P22803 1-104, looked up)
chain: MVTQLKSASEYDSALASGDKLVVVDFFATWCGPCKMIAPMIEKFAEQYSDAAFYKLDVDEVSDVAQKAEVSSMPTLIFYKGGKEVTRVVGANPAAIKQAIASNV
notes: Thioredoxin 2 (Trx2), S. cerevisiae, cytosolic isoform; source: purified as 6His-tagged protein
B4: Mia40Δ290 His (S. cerevisiae Mia40 devoid of the N-terminal 290 residues) (domain or fragment, UniProt P36046 291-403, looked up)
chain: EINWDCPCLGGMAHGPCGEEFKSAFSCFVYSEAEPKGIDCVEKFQHMQDCFRKYPEHYAEQLKETSDDEEPQDKVKVNTIESAPNVSSAKENAAKKAEQSDVKKEPLNEESKP
notes: Mia40, S. cerevisiae, lacking the first 290 amino acids; core domain of about 15 kDa; also called core domain of Mia40; soluble functional domain of Mia40; source: purified as 6His-tagged protein

How the values were obtained:
[1] = molecular target: B4; test: ITC; 1 mM Mia40Δ290 His in the syringe, 0.1 mM TrxC30/33SHis in the cell; Kd calculated with the Origin software; conditions: both partners purified
[2] = molecular target: the molecule itself; test: cross-linking; glutaraldehyde 0.1 % final, equimolar purified proteins alone or together, 50 mM Hepes-KOH pH 7.4, on ice, 20 seconds to 10 minutes; SDS-PAGE and anti-His immunoblot
[3] = molecular target: B4; test: as above; conditions: both partners purified

| Binder | Kd [1] [µM] | binding result [2] | binding result [3] |
| --- | --- | --- | --- |
| B1 | 30 | binds | – |
| B2 | – | binds | binds |
| B3 | – | binds | binds |
| B4 | – | binds | – |

From article doi:10.1101/2021.06.22.449413, “A Thioredoxin reductive mechanism balances the oxidative protein import pathway in the intermembrane space of mitochondria” (bioRxiv, 2021)
